Legend:
[1] = target: human hemoglobin (Hb) (Homo sapiens, UniProt P68871+P69905); test: Circular dichroism with PFNA, Hb
Source text: FIGS. 14A-14L depict circular dichroism spectra of Hb (FIG. 14A), GFP (FIG. 14B), BSA (FIG. 14C), β-Gal (FIG. 14D), rabbit serum IgG (FIG. 14E), transferrin (FIG. 14F), and urease (FIG. 14G) in the absence (black line) or presence (dashed lines) of PFNA. Increasing dash sequence indicated higher concentration of PFNA. FIG. 14H: Change in molar ellipticity at 216 nm (Δθ216) of PFNA-treated proteins, relative to native controls, as a function of increasing ligand concentration. FIG. 14I: Percentage change in secondary structural motifs of Hb, β-Gal and IgG between the native protein and 1 mM PFNA treated samples. β-sheet structures were further differentiated into parallel and antiparallel conformations. Hb, β-Gal and IgG were prioritized for analysis based on their significant spectral shift in the presence of 1 mM PFNA. FIGS. 14J-14L: Sensograms for BSA (FIG. 14J), β-gal (FIG. 14K), and IgG (FIG. 14L) showing relative response (R.U.) at 10, 25, 50, 75, and 100 μM.
To explore PFNA-mediated changes in protein structure, dose-response circular dichroism (CD) studies were performed (FIG. 14A-14G). […] Remarkably, these structural changes endured even at sub-stoichiometric PFNA:protein ratios (see 0.001 mM PFNA in […]; protein concentration was constant at 0.01 mM).

[2] = Protein activity after elevated temperature exposure (Example 4); assay type: physicochemical
Description: A group of enzyme proteins, β-Gal and Trypsin was chosen for this study. β-Gal and Trypsin were diluted in PBS or dispersed in PFOc at 1 μM and 10 μM, respectively. Next, a subset of samples was subjected to elevated temperature condition (90 °C) well beyond their native denaturation temperature for 30 minutes. After that, samples were allowed to cool down to room temperature before retrieval. For PFOc samples, proteins were extracted into PBS before performing the ensuing assays. To determine the enzymatic activity, an equal volume of protein samples was added to their substrates dissolved in PBS (4 mg/mL ONPG for β-Gal or 1 mg/mL BAEE for Trypsin). After incubation, ONPG and BAEE substrate conversions were measured by taking absorbance using a microplate reader at 420 nm or 400 nm, respectively. In case of intrinsic fluorescence, GFP was similarly prepared, and heat treated. After GFP samples were retrieved, fluorescent intensity was taken at λex=490 nm, λem=520 nm. The change in protein activity was presented by normalizing to spectrometric readings of each protein dissolved in PBS without being subjected to heat (room temperature). […] This supports the assertion that the fluorous coating and solvent environments, together, serve to constrain the conformational flexibility of the dispersed protein and, as a result, increase its melting temperature.

[3] = Temperature-dependent circular dichroism of proteins in PFOc or PBS (Example 4); assay type: physicochemical; details: dispersed in PFOc using PD-7, heated up to 85 °C
Description: FIGS. 39A-39B depict temperature-dependent CD spectra of the indicated test protein solubilized in PFOc using the PD-7 dispersant, or PBS as a control.
FIG. 40 depicts the change in minimum CD ellipticity over the 40 °C-85 °C temperature interval for the indicated protein dissolved in either PBS or PFOc.
To determine structural integrity of proteins in aqueous and fluorinated environments at elevated temperatures, circular dichroism (CD) was used to probe secondary structure. Proteins were either diluted in PBS (aqueous) or dispersed in PFOc at the same designated concentrations according to protocol described above. For aqueous samples, dissolved proteins were heated between 40 °C to 90 °C, and their corresponding CD spectra at each temperature was measured. For PFOc samples, each of the PFOc dispersed proteins were subjected to heat treatment at 40, 55, 70, and 85 °C for 15 minutes. After that, dispersed proteins were eluted into PBS before having their CD spectra taken. Data is shown by representative ellipticity at each temperature depicted by distinct colors.

[4] = β-Gal activity after bleach exposure; assay type: physicochemical; details: β-Gal in PFOc
Description: FIGS. 54A-54C depict the relative activity of the β-Gal protein dispersed in PBS or PFOc solvents without and with contamination by (FIG. 54A) proteinase K, (FIG. 54B) bleach or (FIG. 54C) hydrochloric acid. Data shown as average±s.d. of n=3 technical replicates. Statistical significance between conditions is indicated by a line using unpaired Student's t-test with n.s.=not significant, * p<0.05, ** p<0.01, and *** p<0.001.
Here, stock of lyophilized β-Gal was prepared then dispersed in PBS or PFOc. A small volumetric quantity (1% v/v) of 10% bleach was added to the protein samples. Immediately, an equal volume of PBS containing 4 mg/mL ONPG substrate was added to the sample and incubated for 5 minutes to allow for complete substrate conversion. Last, absorbance was taken at 420 nm on the eluted samples, and relative activity was calculated by normalizing absorbance of converted ONPG in oxidizer-treated samples against their corresponding untreated group. […] Here, stock of lyophilized B-Gal was prepared then dispersed in PBS or PFOc. A small volumetric quantity (4% v/v) of 0.1 M HCl was added to the protein samples. After 30 seconds incubation, PBS containing 4 mg/mL ONPG was added to each of the samples to elute and start substrate conversion. After 3-minute conversion, the eluted samples were retrieved, and absorbance was read at 420 nm. […]

[5] = Acute toxicity of β-Gal formulations in mice (Example 4); assay type: in vivo, C57BL/6J mice; details: 24 h
Description: FIG. 56 depicts serologic toxicology results from C57BL/6J mice 24 hours after administration of saline (control), β-GalSaline or β-GalExt. PFOc. Data shown as box and whisker plot±s.d. of n=5 technical replicates. Statistical significance determined using Student's t-test and represented as * p<0.05; all other comparisons were found not to be significant (p>0.05).
Finally, to assess the potential for acute toxicity of the fluorous dispersant, serologic chemistry analysis and histology was performed 24 hours after treating mice with β-Gal delivered from saline or PFOc extractions. […] Reduction of this marker can indicate a transient impairment of kidney and/or liver function.

[6] = β-Gal delivered from PFOc vs saline

human hemoglobin (Hb), sequence (P69905 whole entry): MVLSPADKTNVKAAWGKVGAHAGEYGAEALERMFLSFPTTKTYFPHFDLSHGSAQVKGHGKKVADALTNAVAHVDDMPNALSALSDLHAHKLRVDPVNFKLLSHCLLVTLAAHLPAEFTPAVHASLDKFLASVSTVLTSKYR
human hemoglobin (Hb), sequence (P68871 whole entry): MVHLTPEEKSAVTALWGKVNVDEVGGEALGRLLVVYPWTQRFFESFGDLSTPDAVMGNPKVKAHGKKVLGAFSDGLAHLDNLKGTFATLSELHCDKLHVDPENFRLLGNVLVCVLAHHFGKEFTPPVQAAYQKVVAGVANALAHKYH

Row | Compound | CD structural change, Hb ([1]; 0.001-0.1 mM PFNA) | CD structural change, Hb ([1]; 1 mM PFNA) | retention of bioactivity / function at elevated temperature ([2]; proteins dispersed into fluorous solvent using the dispersant, up to 90 °C) | change in secondary structure [3] | change in activity after heating ([2]; PFOc dispersed, 90 °C for 30 minutes) | loss of bioactivity after heating ([2]; saline, 90 °C for 30 minutes) | β-Gal activity versus PBS controls ([4]; bleach) | loss in functionality ([4]; bleach (1% v/v of 10% bleach), few minutes) | histologic analysis of vital organs ([5]; kidney, liver, lung, spleen) | albumin/globulin (ALB/GLOB) ratio [5, 6] | other renal (CREA, BUN, TP) and hepatic (ALT, AST, ALKP) markers [5, 6]
1 | O=C(O)C(F)(F)C(F)(F)C(F)(F)C(F)(F)C(F)(F)C(F)(F)C(F)(F)C(F)(F)F [Compound 7, perfluoronanonic acid] | induced non-native α-helical structure | slight loss of signal | structured and functional at temperatures as high as 90 °C | – | – | – | – | – | – | – | –
2 | β-Gal: β-Galactosidase (β-Gal), dissolved in PBS/saline or dispersed in PFOc | – | – | – | minimal changes in secondary structure | no statistically significant change in activity | > 90% | statistically higher than that of PBS controls | ≥ 50% | did not identify pathologic signs of necrosis, cellular infiltration, inflammation, or hemorrhage | statistically significant reduction | absence of statistically significant changes
